Results from IntAct's records for PubMed 17954914.

B1: Calcipressin-like protein (Saccharomyces cerevisiae), P36054 (parent)
chain: MGNIITDTIIITSDKCDIVDNDNVERIQVWLSKNILRKFQINENEPLQLIILKRFKRILLICPSHDISQHVMDASRALEMENFNFSYSLQDGQRNLTKQYLKVPESEKMFLISPPASPPPEFDFSKCEDAPQRHIQSHIQQDQQQRLEASQLLPNNPDKNNNGTFTLLKSKVGAITIDRCPTNDGNGQMQLADHVKTAFPPKSIFDTDDDD
partner: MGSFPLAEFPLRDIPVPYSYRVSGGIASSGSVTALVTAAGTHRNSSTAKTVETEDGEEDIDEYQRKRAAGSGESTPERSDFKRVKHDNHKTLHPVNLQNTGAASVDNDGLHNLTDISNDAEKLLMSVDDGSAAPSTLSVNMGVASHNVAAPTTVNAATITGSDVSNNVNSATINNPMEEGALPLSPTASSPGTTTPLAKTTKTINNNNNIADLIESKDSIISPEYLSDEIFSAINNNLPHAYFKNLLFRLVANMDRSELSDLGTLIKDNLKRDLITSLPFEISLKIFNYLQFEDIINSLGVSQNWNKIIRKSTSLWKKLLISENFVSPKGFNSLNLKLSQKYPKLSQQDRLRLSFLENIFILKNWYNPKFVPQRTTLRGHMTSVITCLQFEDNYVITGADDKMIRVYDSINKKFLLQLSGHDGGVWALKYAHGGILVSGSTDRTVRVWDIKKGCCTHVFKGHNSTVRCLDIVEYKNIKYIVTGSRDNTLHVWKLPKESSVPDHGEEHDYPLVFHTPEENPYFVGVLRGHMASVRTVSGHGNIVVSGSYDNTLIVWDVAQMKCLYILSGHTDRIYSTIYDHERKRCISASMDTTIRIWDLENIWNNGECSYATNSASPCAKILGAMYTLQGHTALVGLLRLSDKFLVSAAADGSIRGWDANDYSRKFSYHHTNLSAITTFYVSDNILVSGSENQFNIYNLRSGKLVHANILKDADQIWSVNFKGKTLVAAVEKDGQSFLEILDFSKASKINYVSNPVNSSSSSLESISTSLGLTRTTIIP

Variants of: B1
Conditions: with cdc4_yeast CDC4, P07834

| effect of a mutation on the interaction | Variant |
| --- | --- |
| disrupting interaction | S113A |
| disrupting interaction | S117A |
| disrupting interaction strength | S113A;S117A |
